Reference: paper PMC8376909, “Identification of a transcription factor, PunR, that regulates the purine and purine nucleoside transporter punC in E. coli”

T1: PunR (YdhB), LysR-family regulator (Escherichia coli K-12 (ASKA collection …, UniProt P0ACR2 1-310))
T1 sequence: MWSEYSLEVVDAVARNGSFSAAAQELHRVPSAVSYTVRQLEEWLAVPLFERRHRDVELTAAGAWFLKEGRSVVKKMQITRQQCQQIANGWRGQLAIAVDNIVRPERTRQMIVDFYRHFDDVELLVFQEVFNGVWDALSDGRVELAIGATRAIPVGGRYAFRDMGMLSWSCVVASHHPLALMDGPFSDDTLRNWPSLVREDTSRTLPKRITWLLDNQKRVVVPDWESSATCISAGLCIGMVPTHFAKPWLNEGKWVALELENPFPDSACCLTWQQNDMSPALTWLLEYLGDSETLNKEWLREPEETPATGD

B1: GguR binding site 26 bp (negative control) (dsDNA)
DNA 1: ACCCCCAGTCATCAGACAACCTCCCC
DNA 2: GGGGAGGTTGTCTGATGACTGGGGGT
B2: PunR-binding site 36 bp upstream of punC (dsDNA)
DNA 1: TGGGGACTGGTTTCAAAAATTTTGCAGGCAGAGGGG
DNA 2: CCCCTCTGCCTGCAAAATTTTTGAAACCAGTCCCCA

Columns and labels:
[1] = molecular target: T1, PunR (YdhB), LysR-family regulator; test: EMSA; 1 mM adenine; PunR up to 1.5 uM; 10 mM MgSO4; FP: 20 mM Tris-HCl pH 7.5, 0.1 M NaCl, 0.5 mM EDTA, 10 mM MgSO4, 2 mM DTT, 5 ug/ml herring sperm DNA, 10 nM DNA, 30 C 1 h; EMSA: PBS pH 8, 10 mM MgSO4, 2 mM DTT, 0.25 mM adenine (Methods; 1 or 10 mM in Results and Fig. S3), 100 nM DNA, 30 C 1 h then 25 C 1 h, 6% native PAGE Tris-glycine with 0.25 mM adenine; conditions: protein: recombinant; tags: N-terminal His6; chain copies: 4; label: 5' 6-carboxyfluorescein on printed strand; blunt
[2] = molecular target: T1, PunR (YdhB), LysR-family regulator; test: fluorescence polarization; 0.35 mM adenine; 10 mM MgSO4; FP: 20 mM Tris-HCl pH 7.5, 0.1 M NaCl, 0.5 mM EDTA, 10 mM MgSO4, 2 mM DTT, 5 ug/ml herring sperm DNA, 10 nM DNA, 30 C 1 h; EMSA: PBS pH 8, 10 mM MgSO4, 2 mM DTT, 0.25 mM adenine (Methods; 1 or 10 mM in Results and Fig. S3), 100 nM DNA, 30 C 1 h then 25 C 1 h, 6% native PAGE Tris-glycine with 0.25 mM adenine; conditions: protein: recombinant; tags: N-terminal His6; chain copies: 4; label: 5' 6-carboxyfluorescein on printed strand; blunt

Row | Binder | binding result [1] | Kd [2]
1 | B1 | no binding | 
2 | B2 |  | 27 nM
